± gives the standard deviation of the averaged measurements.
B1: library; a variant is named by its letters at N, in order (parent)
chain: GCUGUCACCGGAAUACCAGCAUCGUCUUGAUGCCCUUGGAAGUCCGGUCUGAUGAGUCCNNNNNGGACGAAACAGC

What was measured:
theophylline [1] = variants of: B1; assay: FACS-Seq fitted mean relative fluorescence mCherry/BFP without ligand (log10 relative fluorescence); higher = higher reporter protein expression; conditions: HEK293T, ligand present: no
Protocol: (§1)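 Hammerhead (sTRSV) ribozyme switch libraries with a ligand aptamer grafted on stem I and a randomized N4-6 loop II, cloned into the 3' UTR of mCherry and transiently transfected into HEK293T cells; RNA-Seq 72 h post transfection with ligand added 1 h before transfection; RNA read count / plasmid DNA read count normalized to the non-cleaving sTRSVctl (x100), log10; sequences with >100 DNA reads. FACS-Seq: lentiviral library sorted into 6 bins after 48 h ligand, log-normal fit mean of mCherry/BFP scaled to controls. Printed sequences are partial switch sequences.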

theophylline [2] = variants of: B1; assay: normalized RNA/DNA level with ligand (relative to sTRSVctl = 100) (log10 (% of sTRSVctl)); higher = less ribozyme self-cleavage, higher mRNA level; conditions: ligand concentration (+) RNA-Seq: 5 mM, HEK293T, reporter: mCherry (pCS4076), ligand present: yes
Protocol: as §1

theophylline [3] = variants of: B1; assay: normalized RNA/DNA level without ligand (relative to sTRSVctl = 100) (log10 (% of sTRSVctl)); higher = less ribozyme self-cleavage, higher mRNA level; conditions: HEK293T, reporter: mCherry (pCS4076), ligand present: no
Protocol: as §1

theophylline [4] = variants of: B1; assay: FACS-Seq fitted mean relative fluorescence mCherry/BFP with ligand (log10 relative fluorescence); ligand concentration (+) FACS-Seq: 1 mM; higher = higher reporter protein expression; conditions: HEK293T, ligand present: yes
Protocol: as §1

Variant | FACS-Seq fitted mean (log10) (theophylline [1]) | normalized RNA/DNA level with ligand (log10) (theophylline [2]) | normalized RNA/DNA level without ligand (log10) (theophylline [3]) | FACS-Seq fitted mean (log10) (theophylline [4])
GCUGUCACCGGAAUACCAGCAUCGUCUUGAUGCCCUUGGAAGUCCGGUCUGAUGAGUCCUCGAAGGACGAAACAGC [UCGAA] | 0.342 ± 0.019 | 1.97 ± 0.055 | 1.48 ± 0.066 | 0.951 ± 0.086
GCUGUCACCGGAAUACCAGCAUCGUCUUGAUGCCCUUGGAAGUCCGGUCUGAUGAGUCCGACGUGGACGAAACAGC [GACGU] | 0.7517 ± 0.0053 | 1.93 ± 0.027 | 1.64 ± 0.15 | 1.03 ± 0.022
GCUGUCACCGGAAUACCAGCAUCGUCUUGAUGCCCUUGGAAGUCCGGUCUGAUGAGUCCACAUCGGACGAAACAGC [ACAUC] | 0.595 ± 0.053 | 2 ± 0.098 | 1.94 ± 0.03 | 0.599 ± 0.055
GCUGUCACCGGAAUACCAGCAUCGUCUUGAUGCCCUUGGAAGUCCGGUCUGAUGAGUCCAGCACGGACGAAACAGC [AGCAC] | 0.712 ± 0.13 | 2.08 ± 0.088 | 1.91 ± 0.12 | 0.669 ± 0.012
GCUGUCACCGGAAUACCAGCAUCGUCUUGAUGCCCUUGGAAGUCCGGUCUGAUGAGUCCAACAAGGACGAAACAGC [AACAA] | 0.377 ± 0.039 | 1.99 ± 0.086 | 1.45 ± 0.25 | 0.704 ± 0.013
GCUGUCACCGGAAUACCAGCAUCGUCUUGAUGCCCUUGGAAGUCCGGUCUGAUGAGUCCACCAAGGACGAAACAGC [ACCAA] | 0.759 ± 0.043 | 2.02 ± 0.082 | 1.74 ± 0.069 | 0.832 ± 0.016
GCUGUCACCGGAAUACCAGCAUCGUCUUGAUGCCCUUGGAAGUCCGGUCUGAUGAGUCCUUAUGGGACGAAACAGC [UUAUG] | 0.732 ± 0.015 | 2.06 ± 0.071 | 1.907 ± 0.0097 | 0.821 ± 0.031
GCUGUCACCGGAAUACCAGCAUCGUCUUGAUGCCCUUGGAAGUCCGGUCUGAUGAGUCCACUGAGGACGAAACAGC [ACUGA] | 0.423 ± 0.012 | 1.96 ± 0.19 | 1.68 ± 0.18 | 0.613 ± 0.023
GCUGUCACCGGAAUACCAGCAUCGUCUUGAUGCCCUUGGAAGUCCGGUCUGAUGAGUCCUGAGAGGACGAAACAGC [UGAGA] | 0.307 ± 0.012 | 1.922 ± 0.0069 | 1.5 ± 0.13 | 0.709 ± 0.041
GCUGUCACCGGAAUACCAGCAUCGUCUUGAUGCCCUUGGAAGUCCGGUCUGAUGAGUCCAACGCGGACGAAACAGC [AACGC] | 0.98544 ± 0.00052 | 2.135 ± 0.0047 | 1.94 ± 0.072 | 0.922 ± 0.023
GCUGUCACCGGAAUACCAGCAUCGUCUUGAUGCCCUUGGAAGUCCGGUCUGAUGAGUCCCCCACGGACGAAACAGC [CCCAC] | 0.775 ± 0.051 | 1.975 ± 0.011 | 1.95 ± 0.061 | 0.711 ± 0.051
GCUGUCACCGGAAUACCAGCAUCGUCUUGAUGCCCUUGGAAGUCCGGUCUGAUGAGUCCUCGGUGGACGAAACAGC [UCGGU] | 0.776 ± 0.2 | 2.084 ± 0.0052 | 1.8 ± 0.16 | 0.68 ± 0.021
GCUGUCACCGGAAUACCAGCAUCGUCUUGAUGCCCUUGGAAGUCCGGUCUGAUGAGUCCCCUGAGGACGAAACAGC [CCUGA] | 0.9447 ± 0.0047 | 2.02 ± 0.028 | 1.92 ± 0.16 | 0.904 ± 0.0082
GCUGUCACCGGAAUACCAGCAUCGUCUUGAUGCCCUUGGAAGUCCGGUCUGAUGAGUCCACACUGGACGAAACAGC [ACACU] | 0.829 ± 0.042 | 2.04 ± 0.094 | 1.85 ± 0.14 | 0.802 ± 0.071
GCUGUCACCGGAAUACCAGCAUCGUCUUGAUGCCCUUGGAAGUCCGGUCUGAUGAGUCCUUGAAGGACGAAACAGC [UUGAA] | 0.273 ± 0.006 | 1.94 ± 0.08 | 1.29 ± 0.064 | 0.619 ± 0.026
GCUGUCACCGGAAUACCAGCAUCGUCUUGAUGCCCUUGGAAGUCCGGUCUGAUGAGUCCUAGAUGGACGAAACAGC [UAGAU] | 0.687 ± 0.045 | 2.02 ± 0.036 | 1.8244 ± 0.0014 | 0.828 ± 0.09
GCUGUCACCGGAAUACCAGCAUCGUCUUGAUGCCCUUGGAAGUCCGGUCUGAUGAGUCCACUCUGGACGAAACAGC [ACUCU] | -0.437 ± 0.075 | 2.01 ± 0.052 | 1.93 ± 0.075 | -0.125 ± 0.13
GCUGUCACCGGAAUACCAGCAUCGUCUUGAUGCCCUUGGAAGUCCGGUCUGAUGAGUCCUUUGAGGACGAAACAGC [UUUGA] | 0.62 ± 0.055 | 2.09 ± 0.097 | 1.94 ± 0.021 | 0.856 ± 0.079

Reference: the supplement of paper PMC6757056
